# Data from patent US20050107601A1.
# How the values were obtained:
# [1] = biological target: erbB receptors on primary chick myotube cultures; assay: cell-based or functional assay
# [2] = biological target: erbB receptors on primary chick myotube cultures; assay: radioligand binding: 0.1 nM 125I-IG-EGF on chick myotubes, 2 hrs on ice, with or without 1 µM cold IG-EGF; cpm bound
"duration of p185 phosphorylation after the ligand is washed out (1 nM, 45 min treatment), chick myotubes [1]","erbB receptor (p185) tyrosine phosphorylation on chick myotubes, 45 min, anti-phosphotyrosine western blot; potency relative to the EGF form [1]",specific binding as percent of total binding [2],Substance
8 h,4 fold,25%,Recombinant human NRG IG-EGF domain construct (amino acids 14-246 of the human β1 form) (from UniProt Q02297 14-246) (ligand)
< 1 h,,,Recombinant human NRG isolated EGF-like domain construct (amino acids 177-246 of the human β1 form) (from UniProt Q02297 177-246) (ligand)
